According to PMC8176221, “Identification and Characterization of Two Transmembrane Proteins Required for Virulence of Ustilago maydis” (Frontiers in Plant Science, 2021):

Target: the molecule itself
Assay: SEC; Vmp2 on a Superose 6 Increase 10/300 column in SEC buffer with 0.03% DDM

B1: Vmp2 (virulence-associated membrane protein 2), full length without the signal peptide (natural protein)
chain: AESQCEERNDYSRKRPSHKPFTSHQNKQDRSCSSPLPSESCSTSAITPSDSAVRDTSLSRRGLPGMPGDIEWMGFYGSLLAVPTMLSILGIITNYNLGKSYYNSELNAQYYKQSREMLRAHTAKLIQDQEKKFANAGVSWNGMVYGKDGQVNPGAKLPEWNGRVLGGTVANPKSQPVPGSGGAVQGAAAGVGGGTTAGVAAGAGAASAGTGPAQVGGATAGGAGAEAQTGTGAIATGTGTGGAGDAGGSAPVSSGAEQGDAEAGDEARGSEERGDDGTEDRRGGQSEGDDDSDSDGNDEGDAGDAGDAGDA
notes: Vmp2 (UMAG_01689) of Ustilago maydis SG200, a protein of 335 aa, cloned from genomic DNA without the signal peptide (25 aa as predicted by SignalP-5.0); one TM helix at residues 100-115; The methods say that the Mistics-tag was cleaved off with TEV before SEC; also called UMAG_01689; full length Vmp2; source: E. coli OverExpress C43 (DE3), purified (membrane fraction solubilised with DDM, Ni-NTA, …)
With B1 the “stoichiometry N” value was 2.
